Measured values published in US20260139017A1, “COMPOSITIONS AND METHODS USING REELIN IN ALZHEIMER'S DISEASE” (The General Hospital Corporation, priority 2022, published 2026).

Experiments:
pDAB1 (Tyr232) = assay: HRECs treated 5 minutes with recombinant mini-RELN, pDAB1 western blot; format: cell-based, human
Method in brief: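 Serum-starved (2 h) HRECs at passage 7 given recombinant mini-RELN constructs or mouse Reelin at 4 ug/mL for 5 min, then lysed. Western blot of 3.5 ug lysate for pDAB1 (Tyr232) with IR detection. Value is pDAB1:total protein band ratio normalized to control.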

pDAB1 = assay: Trans-nasal (MIND) delivery of mini-RELN in mice, brain pDAB1 western blot; format: in vivo; conditions: WT male mice, 72 h post-trans-nasal delivery
Text: We used a MIND procure (trans nasal delivery using Minimally Invasive Nasal Depot (MIND), Padmakumar et al., J Control Release. 2021 Mar. 10; 331: 176-186) or intraperitoneal injection to administer miniRELN constructs into mice. MIND leverages the olfactory nerve to bypass the blood brain barrier. […] Using the MIND methodology provides one method of reaching the entorhinal cortex with minimal systemic exposure. […] (Jackson Laboratory) were housed under regular light/night cycle. All procedures were conducted under approved IACUC animal protocols. Prior to incision, the nasal region was shaved and cleaned using betadine and 70% alcohol and mouse subcutaneously injected with buprenorphine HCl and meloxicam (5 mg/kg). The nasal cavity was then opened using a scalped and nasal mucosa exposed using a microdrill. Once the mucosa was exposed, gel dispersion of either PBS or mini-RELN constructs (Innovagen) in 20% Pluronic (Sigma Aldrich) was subcutaneously delivered in the surgically-generated pocket. Mice were injected with meloxicam for 3 days prior euthanasia at day 4 to collect the brain tissue used for post-mortem analysis.
Western blotting was performed as follows. 20 ug protein homogenates were prepared under reducing and denaturing conditions using Laemmli buffer enriched with 10 mM DTT and 5 min boiling. Samples were electrophoretically separated in a 4-20% Gel at 90V and protein transferred to a PVDF membrane using iBlot™ 2 Dry Blotting System. The membrane was blocked using Intercept® (TBS) Blocking Buffer for 2 hours. We detected pDAB1 (Tyr232; 1:1000, rabbit, #3325 Cell signaling), and Beta actin (1:5000, mouse, #66009-1-Ig, Proteintech). Antibodies were diluted using Intercept® (TBS) Blocking Buffer and incubated overnight at 4C under gentle shaking. Prior secondary antibody incubation, membranes were washes 2 times using TBS-T for 10 minutes. As secondary antibodies we used IR Dye 800n CW Goat-anti-Rabbit (925-32211, Licor) and IR Dye 680 CW Goat-anti-Mouse (925-68070, Licor) both diluted 1:10000 in blocking buffer for 1 h at room temperature under gentle shaking. Membranes were washed three times with TBS-T prior IR detection using Odyssey imager. To quantify the results, each band was quantified using ImageJ and data expressed as pDAB1:βActin ratio normalized to the control.

pTau S396 = assay: Intraperitoneal mini-RELN in MAPT P301S Tau Tg mice, pTau S396 immunofluorescence; format: in vivo; conditions: 6 months old female MAPT P301S mice, intraperitoneal days 1-4, hippocampal and entorhinal regions, vs PBS
Procedure: The effects of systemic delivery of mini-RELN peptides was evaluated in vivo. 6 months old female MAPT P301S Tau Tg mice were injected intraperitoneally on day 1 with 500 μL and on day 2-4 with 250 μL solutions of either vehicle (PBS) or mini-RELN peptides. On Day 5, mice were euthanized with saturating concentration CO2 gas and intracardially perfused with 4% PFA. Brains were subsequently harvested and used for histological analyses.
Immunofluorescence staining of murine brains was performed as follows. 24 hours post fixation with 4% PFA at 4° C., sagittal brain sections were obtained at 1 mm thickness using a stainless-steel brain matrix. The entorhinal-hippocampal section of each brain was chosen for Clarity using Binaree® Tissue Clearing™ Kit (HRTC-012) following the kit guidelines. Sections were incubated with pTauS396 primary antibody for 72 h followed by secondary antibody: Alexa 647, and DAPI for 1 h. Subsequently, sections were imaged using confocal SP8 microscope for quantification. Fourteen images were taken at 63× magnification per group. Fluorescence intensity of pTau was quantified automatically using Matlab (2021a). Otsu's thresholding method was used to get a mask of the image signal and then the mean intensity of the signal was computed.

B1: RAP-FcIgG-CTRH3447R (protein)
chain: MYRMQLLSCIALSLALVTNSMAPRRVRSFLRGLPALLLLLLFLGPWPAASHGGKYSREKNQPKPSPKRESGEEFRMEKLNQLWEKAQRLHLPPVRLAELHADLKIQERDELAWKKLKLDGLDEDGEKEARLIRNLNVILAKYGLDGKKDARQVTSNSLSGTQEDGLDDPRLEKLWHKAKTSGKFSGEELDKLWREFLHHKEKVHEYNVLLETLSRTEEIHENVISPSDLSDIKGSVLHSRHTELKEKLRSINQGLDRLRRVSHQGYSTEAEFEEPRVIDLWDLAQSANLTDKELEAFREELKHFEAKIEKHNHYQKQLEIAHEKLRHAESVGDGERVSRSREKHALLEGRTKELGYTVKKHLQDLSGRISRARHNELTGGSGGNSAPLERKSSVECPPCPAPPVAGPSVFLFPPKPKDTLMISRTPEVTCVVVDVSHEDPEVQFNWYVDGVEVHNAKTKPREEQFNSTFRVVSVLTVVHQDWLNGKEYKCKVSNKGLPAPIEKTISKTKGQPREPQVYTLPPSREEMTKNQVSLTCLVKGFYPSDIAVEWESNGQPENNYKTTPPMLDSDGSFFLYSKLTVDKSRWQQGNVFSCSVMHEALHNHYTQKSLSLSPGARTGGGGSGGGGSSTRKQNYMMNFSRQHGLRRFYNRRRRSLRRYP
efficacy at RELN signaling (pDAB1) relative to comparators (pDAB1 (Tyr232); 5 minutes treatment): more effective than controls | pDAB1 levels (pDAB1 (Tyr232); 5 minutes, 4 ug/mL recombinant protein): increased pDAB1 levels | pDAB1 levels in the hippocampus (pDAB1): increased | pDAB1 levels in the midbrain (pDAB1): increased | pTau S396 fluorescence intensity (pTau S396): decreased levels of pTau S396 signaling
